Source: PMC8978962

Molecular target: CitbHLH2-YFPN (citrus)

## CitMYB52-YFPC (natural protein)
  CitALMT promoter activity (LUC/REN, dual-luciferase assay in tobacco leaves) with the combination of CitMYB52 and CitbHLH2, against the empty vector SK set as 1: 9.8 fold
